Data set [1] concerns the target T1, hRad51 (Homo sapiens, UniProt Q06609 1-339). Briefly: fluorescence polarization; ADP; FP: 25 mM HEPES pH 7.5, 1 mM Mg2+, 1 mM ATP, 1 mM DTT, 50 mM NaCl (100 mM in Fig. 3), 100 ug/ml BSA, 0.02% NP-40, 70 uM Ca2+ or as indicated, 3 nM 84-nt ssDNA. To be noted: chain copies: 28; label: 5' Alexa Fluor 488. Background: Fluorescence polarisation rises when a labelled molecule tumbles more slowly, as on binding a larger partner.

The target in data set [2] is T1, hRad51. The experiment in a line: fluorescence polarization; ATP; FP: 25 mM HEPES pH 7.5, 1 mM Mg2+, 1 mM ATP, 1 mM DTT, 50 mM NaCl (100 mM in Fig. 3), 100 ug/ml BSA, 0.02% NP-40, 70 uM Ca2+ or as indicated, 3 nM 84-nt ssDNA. The note with it: chain copies: 28; label: 5' Alexa Fluor 488.
Data set [3] concerns the target T2, Dmc1-WT (Saccharomyces cerevisiae, UniProt P25453 1-334).
T2 sequence: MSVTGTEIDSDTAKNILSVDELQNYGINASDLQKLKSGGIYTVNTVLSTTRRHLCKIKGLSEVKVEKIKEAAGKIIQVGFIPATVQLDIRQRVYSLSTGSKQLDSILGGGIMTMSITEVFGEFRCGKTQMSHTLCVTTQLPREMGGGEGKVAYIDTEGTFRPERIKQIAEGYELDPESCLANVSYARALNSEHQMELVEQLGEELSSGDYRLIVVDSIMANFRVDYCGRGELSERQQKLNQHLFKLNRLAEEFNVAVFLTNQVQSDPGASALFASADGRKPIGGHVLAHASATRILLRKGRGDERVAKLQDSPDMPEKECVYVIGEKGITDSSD
The experiment in a line: fluorescence polarization; ATP, 0 Ca2+; FP: 25 mM HEPES pH 7.5, 1 mM Mg2+, 1 mM ATP, 1 mM DTT, 50 mM NaCl (100 mM in Fig. 3), 100 ug/ml BSA, 0.02% NP-40, 70 uM Ca2+ or as indicated, 3 nM 84-nt ssDNA. The note with it: protein: recombinant; tags: N-terminal 6xHis; label: 5' Alexa Fluor 488.

The target of data set [4] is T2, Dmc1-WT. The experiment in a line: fluorescence polarization; ATP, 1 mM Ca2+; FP: 25 mM HEPES pH 7.5, 1 mM Mg2+, 1 mM ATP, 1 mM DTT, 50 mM NaCl (100 mM in Fig. 3), 100 ug/ml BSA, 0.02% NP-40, 70 uM Ca2+ or as indicated, 3 nM 84-nt ssDNA. To be noted: protein: recombinant; tags: N-terminal 6xHis; label: 5' Alexa Fluor 488.
Data set [5] concerns the target T2, Dmc1-WT. The experiment in a line: fluorescence polarization; ATP, 70 uM Ca2+; FP: 25 mM HEPES pH 7.5, 1 mM Mg2+, 1 mM ATP, 1 mM DTT, 50 mM NaCl (100 mM in Fig. 3), 100 ug/ml BSA, 0.02% NP-40, 70 uM Ca2+ or as indicated, 3 nM 84-nt ssDNA. To be noted: protein: recombinant; tags: N-terminal 6xHis; label: 5' Alexa Fluor 488.
Data set [6] deals with T2, Dmc1-WT. Briefly: fluorescence polarization; ATP, 250 uM Ca2+; FP: 25 mM HEPES pH 7.5, 1 mM Mg2+, 1 mM ATP, 1 mM DTT, 50 mM NaCl (100 mM in Fig. 3), 100 ug/ml BSA, 0.02% NP-40, 70 uM Ca2+ or as indicated, 3 nM 84-nt ssDNA. To be noted: protein: recombinant; tags: N-terminal 6xHis; label: 5' Alexa Fluor 488.
Data set [7] addresses T3, Dmc1-WT;Mei5-Sae3 (Saccharomyces cerevisiae;Saccharomyces …, UniProt P25453;P32489;P89114 1-334;1-222;1-91, |).
T3 sequence 1: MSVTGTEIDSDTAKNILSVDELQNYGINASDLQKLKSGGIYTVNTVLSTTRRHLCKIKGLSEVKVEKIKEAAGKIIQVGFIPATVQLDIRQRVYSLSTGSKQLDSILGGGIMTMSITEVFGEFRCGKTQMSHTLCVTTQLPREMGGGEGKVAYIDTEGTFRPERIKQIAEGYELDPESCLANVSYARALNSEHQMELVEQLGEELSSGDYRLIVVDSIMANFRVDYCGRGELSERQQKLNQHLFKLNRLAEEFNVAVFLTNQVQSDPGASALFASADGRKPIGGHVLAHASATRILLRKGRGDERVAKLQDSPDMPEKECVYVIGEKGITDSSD
T3 sequence 2: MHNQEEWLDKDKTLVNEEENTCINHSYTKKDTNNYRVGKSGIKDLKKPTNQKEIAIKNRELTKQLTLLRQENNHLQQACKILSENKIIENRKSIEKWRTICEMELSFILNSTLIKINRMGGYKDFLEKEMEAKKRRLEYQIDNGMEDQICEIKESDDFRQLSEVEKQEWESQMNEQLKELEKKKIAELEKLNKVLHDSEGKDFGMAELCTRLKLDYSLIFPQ
T3 sequence 3: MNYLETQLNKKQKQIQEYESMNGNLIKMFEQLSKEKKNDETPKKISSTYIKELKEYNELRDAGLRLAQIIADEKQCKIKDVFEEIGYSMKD
Briefly: fluorescence polarization; ADP, 400 nM Mei5-Sae3; FP: 25 mM HEPES pH 7.5, 1 mM Mg2+, 1 mM ATP, 1 mM DTT, 50 mM NaCl (100 mM in Fig. 3), 100 ug/ml BSA, 0.02% NP-40, 70 uM Ca2+ or as indicated, 3 nM 84-nt ssDNA. The note with it: protein: recombinant;recombinant; tags: N-terminal 6xHis;N-terminal 6xHis on Mei5; label: 5' Alexa Fluor 488.

The target in data set [8] is T3, Dmc1-WT;Mei5-Sae3. Briefly: fluorescence polarization; AMP-PNP, 400 nM Mei5-Sae3; FP: 25 mM HEPES pH 7.5, 1 mM Mg2+, 1 mM ATP, 1 mM DTT, 50 mM NaCl (100 mM in Fig. 3), 100 ug/ml BSA, 0.02% NP-40, 70 uM Ca2+ or as indicated, 3 nM 84-nt ssDNA. The note with it: protein: recombinant;recombinant; tags: N-terminal 6xHis;N-terminal 6xHis on Mei5; label: 5' Alexa Fluor 488.

The target in another data set is RecA;Mei5-Sae3 (Escherichia coli;Saccharomyces …, UniProt P0A7G6;P32489;P89114 1-353;1-222;1-91, |). The experiment in a line: fluorescence polarization; 400 nM Mei5-Sae3: no impact on Kd; FP: 25 mM HEPES pH 7.5, 1 mM Mg2+, 1 mM ATP, 1 mM DTT, 50 mM NaCl (100 mM in Fig. 3), 100 ug/ml BSA, 0.02% NP-40, 70 uM Ca2+ or as indicated, 3 nM 84-nt ssDNA. The note with it: protein: ;recombinant; tags: ;N-terminal 6xHis on Mei5; label: 5' Alexa Fluor 488.

The target of a further data set is RecA (Escherichia coli, UniProt P0A7G6 1-353). The experiment in a line: fluorescence polarization; 100 mM NaCl (90% of binding remains); FP: 25 mM HEPES pH 7.5, 1 mM Mg2+, 1 mM ATP, 1 mM DTT, 50 mM NaCl (100 mM in Fig. 3), 100 ug/ml BSA, 0.02% NP-40, 70 uM Ca2+ or as indicated, 3 nM 84-nt ssDNA. To be noted: label: 5' Alexa Fluor 488.
The next data set addresses T4, Mei5-Sae3 (Saccharomyces cerevisiae, UniProt P32489;P89114 1-222;1-91).
T4 sequence 1: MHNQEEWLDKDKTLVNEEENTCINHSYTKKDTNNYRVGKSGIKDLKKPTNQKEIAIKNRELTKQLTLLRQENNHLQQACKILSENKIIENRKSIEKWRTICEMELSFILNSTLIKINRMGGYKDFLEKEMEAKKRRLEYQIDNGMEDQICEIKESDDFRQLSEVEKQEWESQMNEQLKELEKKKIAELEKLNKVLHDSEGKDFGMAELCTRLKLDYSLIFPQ
T4 sequence 2: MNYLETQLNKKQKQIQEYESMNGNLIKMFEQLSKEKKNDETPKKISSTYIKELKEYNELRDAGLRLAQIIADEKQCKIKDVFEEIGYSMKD
Briefly: fluorescence polarization; titration; very low signal at 400 nM; FP: 25 mM HEPES pH 7.5, 1 mM Mg2+, 1 mM ATP, 1 mM DTT, 50 mM NaCl (100 mM in Fig. 3), 100 ug/ml BSA, 0.02% NP-40, 70 uM Ca2+ or as indicated, 3 nM 84-nt ssDNA. The note with it: protein: recombinant; tags: N-terminal 6xHis on Mei5; copies: 1;1; label: 5' Alexa Fluor 488.

Data set [9] deals with T3, Dmc1-WT;Mei5-Sae3. The experiment in a line: fluorescence polarization; ATP, 70 uM Ca2+, Mei5-Sae3 (400 nM, no own signal); FP: 25 mM HEPES pH 7.5, 1 mM Mg2+, 1 mM ATP, 1 mM DTT, 50 mM NaCl (100 mM in Fig. 3), 100 ug/ml BSA, 0.02% NP-40, 70 uM Ca2+ or as indicated, 3 nM 84-nt ssDNA. To be noted: protein: recombinant;recombinant; tags: N-terminal 6xHis;N-terminal 6xHis on Mei5; label: 5' Alexa Fluor 488.

The target in a further data set is T5, Dmc1-E157D (Saccharomyces cerevisiae, UniProt P25453 1-334, E157D).
T5 sequence: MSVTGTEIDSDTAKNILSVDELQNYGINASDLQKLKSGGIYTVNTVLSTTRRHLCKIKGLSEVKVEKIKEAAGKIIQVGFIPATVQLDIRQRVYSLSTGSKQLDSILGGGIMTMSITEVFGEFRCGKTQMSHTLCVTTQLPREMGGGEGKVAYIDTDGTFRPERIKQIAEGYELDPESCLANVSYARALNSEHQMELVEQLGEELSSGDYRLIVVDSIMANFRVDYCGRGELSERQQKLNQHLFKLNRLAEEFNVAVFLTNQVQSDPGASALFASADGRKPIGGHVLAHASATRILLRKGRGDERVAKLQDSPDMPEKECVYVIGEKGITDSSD
Briefly: fluorescence polarization; ATP, 70 uM Ca2+, 50 mM NaCl, 30 C; comparable to WT; FP: 25 mM HEPES pH 7.5, 1 mM Mg2+, 1 mM ATP, 1 mM DTT, 50 mM NaCl (100 mM in Fig. 3), 100 ug/ml BSA, 0.02% NP-40, 70 uM Ca2+ or as indicated, 3 nM 84-nt ssDNA. To be noted: protein: recombinant; tags: N-terminal 6xHis; label: 5' Alexa Fluor 488.

Values joined by “and” are separate entries in the source; they are usually repeats but may differ in a detail not shown here. Equal entries are not always repeated.

T1 sequence (Q06609 whole entry): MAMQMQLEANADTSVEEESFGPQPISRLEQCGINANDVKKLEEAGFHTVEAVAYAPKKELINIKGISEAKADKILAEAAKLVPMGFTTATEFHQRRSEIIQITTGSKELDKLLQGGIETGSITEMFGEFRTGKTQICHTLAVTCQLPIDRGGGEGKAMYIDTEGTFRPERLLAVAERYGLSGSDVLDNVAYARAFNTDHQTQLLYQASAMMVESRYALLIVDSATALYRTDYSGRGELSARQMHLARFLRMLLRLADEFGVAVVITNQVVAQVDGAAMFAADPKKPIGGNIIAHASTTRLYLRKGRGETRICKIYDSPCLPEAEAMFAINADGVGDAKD
Chain of RecA (P0A7G6 whole entry): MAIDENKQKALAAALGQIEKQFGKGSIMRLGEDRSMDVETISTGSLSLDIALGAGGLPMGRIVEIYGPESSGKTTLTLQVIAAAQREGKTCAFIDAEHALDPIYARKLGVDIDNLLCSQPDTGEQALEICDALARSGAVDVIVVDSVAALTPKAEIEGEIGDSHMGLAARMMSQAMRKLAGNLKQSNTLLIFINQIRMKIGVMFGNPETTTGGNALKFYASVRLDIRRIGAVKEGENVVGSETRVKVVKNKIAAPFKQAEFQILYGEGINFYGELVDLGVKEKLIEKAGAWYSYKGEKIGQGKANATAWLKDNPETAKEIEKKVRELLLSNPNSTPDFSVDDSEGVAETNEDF
Chain of RecA;Mei5-Sae3 (P0A7G6 whole entry, one chain of several): as the sequence (P0A7G6 whole entry) above

B1: 84 nt-ssDNA (ssDNA)
DNA: GGTAGCGGTTGGGTGAGTGGTGGGGAGGGTCGGGAGGTGGCGTAGAAACATGATAGGAATGTGAATGAATGAAGTACAAGTAAA
As usually defined, the Kd is the free concentration of one partner at which half of the binding sites on the other are occupied at equilibrium, for simple one-to-one binding. For the molecule B1, the Kd in the data set with hRad51 [1] was 476 ± 20 nM; in the data set with hRad51 [2], 342 ± 10 nM; with Dmc1-WT [3], 1340 ± 113 nM; with Dmc1-WT [4], 164 ± 13 nM; with Dmc1-WT [5] it was 966 nM and 933 nM; with Dmc1-WT [6], 472 nM and 508 nM. In the data set with Dmc1-WT;Mei5-Sae3 [9], the Kd turned out to be 512 ± 25 nM. Moreover, the “fold decrease in Kd vs Dmc1 alone” value with Dmc1-WT;Mei5-Sae3 [7] was ~1.5 fold lower Kd than Dmc1 alone. In the data set with Dmc1-WT;Mei5-Sae3 [8], the “fold decrease in Kd” value was ~1.5 fold lower Kd than Dmc1 alone. The binding result with RecA;Mei5-Sae3, in the data set with RecA, with Mei5-Sae3 and with Dmc1-E157D was “binds” throughout.

For the origin of these results see PMC12596195, “Mei5–Sae3 stabilizes both active and inactive forms of Dmc1 filaments independently of its impact on ATP hydrolysis” (Nucleic Acids Research, 2025).
